What is called Ki is a dissociation constant, usually derived from enzyme kinetics or from competition with a known ligand. A higher Ki goes with lower affinity.

In assay [1] the target is T1, MCL-1 (UniProt Q07820 172-327, limits assumed).
T1 construct: Target of the Ki columns; also called Myeloid cell leukemia 1
Description: Ki; method not stated; unit not printed (nM per Table 6).

Assay [2] has as its target T2, BCL-XL (UniProt Q07817 1-209).
T2 construct: Target of the Ki columns
The description is as above.

The target in assay [3] is T3, BCL-2 (UniProt P10415 1-217, limits assumed).
T3 construct: Target of the Ki columns
The description is as above.

Assay [4] has as its target T2, BCL-XL. Briefly: Ki (Table 6); method not stated.
Assay [5] addresses T3, BCL-2. Briefly: Ki (Table 6); method not stated.
Assay [6] addresses T1, MCL-1. Description: Ki (Table 6); method not stated.

Starred links: 1 amine or outer side, 2 acyl side, 3 side chain; linkers in the order of their positions; H or OH if unused. Positions of bridges follow the written chain, without caps; N, C: chain ends. Non-standard residues stand in square brackets, D forms with d. St = two pentenyl-alanine olefin side chains, each crosslinked to another residue (stitch), C=CCCCC(CCCC=C)(N[*:1])C(=O)[*:2]; R8 = C=CCCCCCC[C@@](C)(N)C(=O)O; R5 = C=CCCC[C@@](C)(N)C(=O)O; S5 = C=CCCC[C@](C)(N)C(=O)O

T3 sequence (P10415 1-217 limits assumed): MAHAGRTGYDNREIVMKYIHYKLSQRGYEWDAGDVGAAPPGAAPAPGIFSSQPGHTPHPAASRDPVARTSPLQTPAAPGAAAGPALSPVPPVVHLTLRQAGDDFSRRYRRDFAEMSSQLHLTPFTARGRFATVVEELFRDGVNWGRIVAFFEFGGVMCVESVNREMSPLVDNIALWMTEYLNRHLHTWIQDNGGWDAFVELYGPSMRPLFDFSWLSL
T2 sequence (Q07817 1-209): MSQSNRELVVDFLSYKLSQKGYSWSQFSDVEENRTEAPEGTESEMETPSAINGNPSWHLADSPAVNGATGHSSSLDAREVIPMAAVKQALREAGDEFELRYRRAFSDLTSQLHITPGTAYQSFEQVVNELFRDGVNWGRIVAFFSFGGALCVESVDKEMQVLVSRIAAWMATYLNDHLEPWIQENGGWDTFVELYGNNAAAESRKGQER
T1 sequence (Q07820 172-327 limits assumed): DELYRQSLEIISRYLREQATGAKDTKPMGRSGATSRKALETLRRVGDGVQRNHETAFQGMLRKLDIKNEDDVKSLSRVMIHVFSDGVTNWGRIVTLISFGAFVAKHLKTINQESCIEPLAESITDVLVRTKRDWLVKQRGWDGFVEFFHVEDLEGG

B1: SEQ ID NO: 1762 (peptide)
peptide: Ac-IWIAAALR[R8]IGDAFN[S5]YYQ-NH2
modifications: staple 9-16
SMILES: CC[C@H](C)[C@H](NC(C)=O)C(=O)N[C@@H](Cc1c[nH]c2ccccc12)C(=O)N[C@H](C(=O)N[C@@H](C)C(=O)N[C@@H](C)C(=O)N[C@@H](C)C(=O)N[C@@H](CC(C)C)C(=O)N[C@@H](CCCNC(=N)N)C(=O)N[C@]1(C)CCCCCCC=CCCC[C@@](C)(C(=O)N[C@@H](Cc2ccc(O)cc2)C(=O)N[C@@H](Cc2ccc(O)cc2)C(=O)N[C@@H](CCC(N)=O)C(N)=O)NC(=O)[C@H](CC(N)=O)NC(=O)[C@H](Cc2ccccc2)NC(=O)[C@H](C)NC(=O)[C@H](CC(=O)O)NC(=O)CNC(=O)[C@H]([C@@H](C)CC)NC1=O)[C@@H](C)CC
For the molecule B1, the Ki was 4.6 nM with MCL-1 [1], 41.1 nM in the assay with BCL-XL [2] and 64.7 nM in the assay with BCL-2 [3].

B2: SEQ ID NO: 1765 (peptide)
peptide: Ac-IWIAAALR[R8]IGDAFN[S5]YYR-NH2
modifications: staple 9-16
SMILES: CC[C@H](C)[C@H](NC(C)=O)C(=O)N[C@@H](Cc1c[nH]c2ccccc12)C(=O)N[C@H](C(=O)N[C@@H](C)C(=O)N[C@@H](C)C(=O)N[C@@H](C)C(=O)N[C@@H](CC(C)C)C(=O)N[C@@H](CCCNC(=N)N)C(=O)N[C@]1(C)CCCCCCC=CCCC[C@@](C)(C(=O)N[C@@H](Cc2ccc(O)cc2)C(=O)N[C@@H](Cc2ccc(O)cc2)C(=O)N[C@@H](CCCNC(=N)N)C(N)=O)NC(=O)[C@H](CC(N)=O)NC(=O)[C@H](Cc2ccccc2)NC(=O)[C@H](C)NC(=O)[C@H](CC(=O)O)NC(=O)CNC(=O)[C@H]([C@@H](C)CC)NC1=O)[C@@H](C)CC
Turning to B2, the Ki with MCL-1 [1] was 18.5 nM; in the assay with BCL-XL [2], 186 nM; in the assay with BCL-2 [3], 142 nM.

B3: SEQ ID NO: 1763 (peptide)
peptide: Ac-IWIAAALR[R8]IGDAFN[S5]YYS-NH2
modifications: staple 9-16
SMILES: CC[C@H](C)[C@H](NC(C)=O)C(=O)N[C@@H](Cc1c[nH]c2ccccc12)C(=O)N[C@H](C(=O)N[C@@H](C)C(=O)N[C@@H](C)C(=O)N[C@@H](C)C(=O)N[C@@H](CC(C)C)C(=O)N[C@@H](CCCNC(=N)N)C(=O)N[C@]1(C)CCCCCCC=CCCC[C@@](C)(C(=O)N[C@@H](Cc2ccc(O)cc2)C(=O)N[C@@H](Cc2ccc(O)cc2)C(=O)N[C@@H](CO)C(N)=O)NC(=O)[C@H](CC(N)=O)NC(=O)[C@H](Cc2ccccc2)NC(=O)[C@H](C)NC(=O)[C@H](CC(=O)O)NC(=O)CNC(=O)[C@H]([C@@H](C)CC)NC1=O)[C@@H](C)CC
Take B3: the Ki with MCL-1 [1] is 4.7 nM; in the assay with BCL-XL [2], 36 nM; in the assay with BCL-2 [3], 62.4 nM.

B4: SEQ ID NO: 1764 (peptide)
peptide: Ac-IWIAAALR[R8]IGDAFN[S5]YYH-NH2
modifications: staple 9-16
SMILES: CC[C@H](C)[C@H](NC(C)=O)C(=O)N[C@@H](Cc1c[nH]c2ccccc12)C(=O)N[C@H](C(=O)N[C@@H](C)C(=O)N[C@@H](C)C(=O)N[C@@H](C)C(=O)N[C@@H](CC(C)C)C(=O)N[C@@H](CCCNC(=N)N)C(=O)N[C@]1(C)CCCCCCC=CCCC[C@@](C)(C(=O)N[C@@H](Cc2ccc(O)cc2)C(=O)N[C@@H](Cc2ccc(O)cc2)C(=O)N[C@@H](Cc2c[nH]cn2)C(N)=O)NC(=O)[C@H](CC(N)=O)NC(=O)[C@H](Cc2ccccc2)NC(=O)[C@H](C)NC(=O)[C@H](CC(=O)O)NC(=O)CNC(=O)[C@H]([C@@H](C)CC)NC1=O)[C@@H](C)CC
On to B4, for which the Ki with MCL-1 [1] was found to be 10.6 nM; with BCL-XL [2], 73.8 nM; in the assay with BCL-2 [3], 98.8 nM.

B5: SEQ ID NO: 1766 (peptide)
peptide: Ac-IWIAAALR[R8]IGDAFN[S5]YYK-NH2
modifications: staple 9-16
SMILES: CC[C@H](C)[C@H](NC(C)=O)C(=O)N[C@@H](Cc1c[nH]c2ccccc12)C(=O)N[C@H](C(=O)N[C@@H](C)C(=O)N[C@@H](C)C(=O)N[C@@H](C)C(=O)N[C@@H](CC(C)C)C(=O)N[C@@H](CCCNC(=N)N)C(=O)N[C@]1(C)CCCCCCC=CCCC[C@@](C)(C(=O)N[C@@H](Cc2ccc(O)cc2)C(=O)N[C@@H](Cc2ccc(O)cc2)C(=O)N[C@@H](CCCCN)C(N)=O)NC(=O)[C@H](CC(N)=O)NC(=O)[C@H](Cc2ccccc2)NC(=O)[C@H](C)NC(=O)[C@H](CC(=O)O)NC(=O)CNC(=O)[C@H]([C@@H](C)CC)NC1=O)[C@@H](C)CC
As to B5, the inhibition constant (Ki) came out at 6.6 nM with MCL-1 [1], 66.3 nM with BCL-XL [2] and 43.4 nM in the assay with BCL-2 [3].

Turning to Ac-IWIAQALR[R8]IGDEFN[St]YYA[R5]A-NH2 (staple 16-20, 9-16) [SEQ ID NO: 1784], the figures for the Ki with MCL-1 [1], in the assay with BCL-XL [2] and with BCL-2 [3] were 11.6 nM, 24.2 nM and 57.7 nM, respectively.

B6: Cross-linked peptide #6 (peptide)
peptide: IWIAQALXAIGDQFNAYYA
modifications: not fully specified; N-terminal Ac; Cit at residue 8 (column 153); $r8 at residue 9 (column 154) and $ at residue 16 (column 161), crosslinked; C-terminal NH2
For B6, the Ki with BCL-XL [4] was 28.8 nM; with BCL-2 [5], 88.2 nM.

B7: Cross-linked peptide #1 (peptide)
peptide: Ac-IWIAQALR[R8]IGDEFN[S5]YYA-NH2
modifications: staple 9-16
SMILES: CC[C@H](C)[C@H](NC(C)=O)C(=O)N[C@@H](Cc1c[nH]c2ccccc12)C(=O)N[C@H](C(=O)N[C@@H](C)C(=O)N[C@@H](CCC(N)=O)C(=O)N[C@@H](C)C(=O)N[C@@H](CC(C)C)C(=O)N[C@@H](CCCNC(=N)N)C(=O)N[C@]1(C)CCCCCCC=CCCC[C@@](C)(C(=O)N[C@@H](Cc2ccc(O)cc2)C(=O)N[C@@H](Cc2ccc(O)cc2)C(=O)N[C@@H](C)C(N)=O)NC(=O)[C@H](CC(N)=O)NC(=O)[C@H](Cc2ccccc2)NC(=O)[C@H](CCC(=O)O)NC(=O)[C@H](CC(=O)O)NC(=O)CNC(=O)[C@H]([C@@H](C)CC)NC1=O)[C@@H](C)CC
In the case of B7, the inhibitory constant (Ki) was 1.8 nM in the assay with MCL-1 [6], 1.4 nM with BCL-XL [4] and 3.2 nM with BCL-2 [5].

B8: Cross-linked peptide #2 (peptide)
peptide: Ac-IWIAQALR[R8]IGDQFN[S5]YYA-NH2
modifications: staple 9-16
SMILES: CC[C@H](C)[C@H](NC(C)=O)C(=O)N[C@@H](Cc1c[nH]c2ccccc12)C(=O)N[C@H](C(=O)N[C@@H](C)C(=O)N[C@@H](CCC(N)=O)C(=O)N[C@@H](C)C(=O)N[C@@H](CC(C)C)C(=O)N[C@@H](CCCNC(=N)N)C(=O)N[C@]1(C)CCCCCCC=CCCC[C@@](C)(C(=O)N[C@@H](Cc2ccc(O)cc2)C(=O)N[C@@H](Cc2ccc(O)cc2)C(=O)N[C@@H](C)C(N)=O)NC(=O)[C@H](CC(N)=O)NC(=O)[C@H](Cc2ccccc2)NC(=O)[C@H](CCC(N)=O)NC(=O)[C@H](CC(=O)O)NC(=O)CNC(=O)[C@H]([C@@H](C)CC)NC1=O)[C@@H](C)CC
B8: the inhibition constant (Ki) with MCL-1 [6] worked out at 5.2 nM; with BCL-XL [4], 12 nM; with BCL-2 [5] it was 67 nM.

For the origin of these results see patent US20180273587A1 (AILERON THERAPEUTICS, published 2018).
